Where two headings read alike, the source gives them in different places.

In general, Kd refers to the concentration at which binding is half-saturated. The low end stands for tighter binding, the high end for weaker binding. A word on the koff: it is the first-order rate constant of dissociation. Lower therefore signals slow dissociation. As a reminder, the EC50 is the concentration giving half of the maximal effect.

Assay [1] addresses T1, FimGnteH (E. coli, UniProt P08190 24-37).
T1 sequence (P08190 whole entry, looked up): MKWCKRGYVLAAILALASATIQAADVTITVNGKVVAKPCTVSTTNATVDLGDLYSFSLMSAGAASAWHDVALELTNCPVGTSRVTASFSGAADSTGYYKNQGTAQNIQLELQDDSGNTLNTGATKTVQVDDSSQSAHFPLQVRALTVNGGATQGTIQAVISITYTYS
The experiment in a line: BLI.

In assay [2] the target is T2, FimGNTEH (E. coli, UniProt P08190 24-37).
T2 sequence (P08190 whole entry, looked up): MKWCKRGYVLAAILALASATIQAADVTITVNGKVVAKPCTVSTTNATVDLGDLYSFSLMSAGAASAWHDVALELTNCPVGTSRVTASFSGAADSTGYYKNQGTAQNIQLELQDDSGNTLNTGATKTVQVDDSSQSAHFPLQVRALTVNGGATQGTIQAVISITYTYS
Nature of the assay: BLI. On the technique in general: In BLI a coated tip is dipped into the sample, and binding shifts an interference pattern.

For assay [3], the target named is T3, E. coli FimH lectin domain truncate (UT189) (E. coli (UT189)).
T3 chain: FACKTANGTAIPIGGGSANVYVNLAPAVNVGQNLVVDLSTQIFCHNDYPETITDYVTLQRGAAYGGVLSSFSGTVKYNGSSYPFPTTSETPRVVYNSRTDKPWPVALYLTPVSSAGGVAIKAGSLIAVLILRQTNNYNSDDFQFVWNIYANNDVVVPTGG
Nature of the assay: BLI.

Assay [4] addresses T3, E. coli FimH lectin domain truncate …. Nature of the assay: BLI.
Assay [5] shares this target. The experiment in a line: BLI.
Assay [6] has as its target Ec FimHLD. Nature of the assay: ELISA. (In general: ELISA stands for enzyme-linked immunosorbent assay.)
The target of assay [7] is T4, Ec FmlHLD.
T4 chain: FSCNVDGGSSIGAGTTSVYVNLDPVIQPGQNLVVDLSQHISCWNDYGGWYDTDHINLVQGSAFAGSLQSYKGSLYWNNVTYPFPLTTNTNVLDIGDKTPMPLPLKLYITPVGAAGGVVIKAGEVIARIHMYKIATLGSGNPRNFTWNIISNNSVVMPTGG
Nature of the assay: ELISA.

The target in assay [8] is T5, Kp FimHLD.
T5 chain: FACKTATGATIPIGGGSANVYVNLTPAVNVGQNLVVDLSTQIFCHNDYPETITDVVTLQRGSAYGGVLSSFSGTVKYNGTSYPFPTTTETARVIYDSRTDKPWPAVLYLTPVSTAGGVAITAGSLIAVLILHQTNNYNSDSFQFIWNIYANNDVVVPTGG
The experiment in a line: ELISA.

In assay [9] the target is T3, E. coli FimH lectin domain truncate …. Nature of the assay: BLI.
Assay [10] shares this target. Nature of the assay: BLI.
For assay [11], the target named is Kp1 2G02. Nature of the assay: BLI.
Assay [12] addresses Kp1 1A02. Nature of the assay: BLI.
The target of assay [13] is Kp1 1C01. Nature of the assay: BLI.
The target in assay [14] is Ec1 H9. The experiment in a line: BLI.
The target of assay [15] is Kp1 2D07. The experiment in a line: BLI.
The target of assay [16] is Kp1 2H07. The experiment in a line: BLI.
The target of assay [17] is Kp1 1B03. Nature of the assay: BLI.
The target in assay [18] is Kp1 2E02. Nature of the assay: BLI.
Assay [19] addresses Kp1 2E08. The experiment in a line: BLI.
Assay [20] addresses Ec1 C12. The experiment in a line: BLI.

B1: Ec1 F7 (Fab, V domains shown)
VH: EVQLQQPGPVLVKPGPSVKISCKASGFTFTDYFIHWVKQSHGKSLEWIGLVSPYNGGTYYNQQFKGKATLTVDTSSSTAYMDLNSLTSEDSAVYYCTRLLRGYWYFDVWGTGTTVTVSS
VL: QIVLTQSPALMAASPGEKVTITCSVSSSIGSSNLHWYQQKSETSPKPWIYGTSNLASGVPVRFSGSGSGTSYSLTISSMEAEDAATYYCQQWSTYPYTFGGGTKLEIKR
Consider B1, for which the Kd in [1] and in [2] was 0.7 nM throughout.

B2: Ec1 F7 Fab (Fab, V domains shown)
VH: EVQLQQPGPVLVKPGPSVKISCKASGFTFTDYFIHWVKQSHGKSLEWIGLVSPYNGGTYYNQQFKGKATLTVDTSSSTAYMDLNSLTSEDSAVYYCTRLLRGYWYFDVWGTGTTVTVSS
VL: QIVLTQSPALMAASPGEKVTITCSVSSSIGSSNLHWYQQKSETSPKPWIYGTSNLASGVPVRFSGSGSGTSYSLTISSMEAEDAATYYCQQWSTYPYTFGGGTKLEIKR
With B2, the off-rate (koff) in assay [3] and in [4] was 2.2e-05 s⁻¹ each time.

B3: Kp1 2H04 Fab (Fab, V domains shown)
VH: EVQLQQSGAELVKPGASVKLSCKASGYTFTSYWMHWVKQRPGQGLEWIGLIHPNSSSTYYNEKFKTRATLTVDKSSSTAYMQLSSLTSEDSAVYYCARLGYGNSYWYFDVWGTGTTVTVSS
VL: QIVLTQSPALMAASPGEKVTITCSVSSSISSSNLHWYQQKSETSPKPWIYGTSNLASGVPIRFSGSGSGTSYSLTISSLEAEDAATYYCQQWRSYPWTFGGGTKLEIKR
As to B3, the koff in [5] and in [3] was 2.1e-05 s⁻¹ in each case.

B4: Kp1 1A02 (antibody, V domains shown)
VH: EVQLQQSGPVLVKPGPSMKISCKASGFTFTDYYIHWVRQSHGKSLEWIGLVSPYNGGTYYNQKFKGKATLTVDSSSSTAYMELSSLTSEDSAVYYCARLGYYGDWYYFDYWGQGTPLTVSS
VL: QIVLTQSPALMATSPGEKVTITCSVSSSISSSNLNWYQQKSETSPKPWIYGTSNLASGVPVRFSGSGSGTSYSLTISSMEAEDAATYYCQQWSSYPYTFGGGTKLEIKR
On to B4, for which the 50% effective concentration (EC50) stood at 0.0144 µg/mL in assay [6], 2.1 µg/mL in assay [7] and 0.0185 µg/mL in assay [8].

B5: Kp1 2H04 (antibody, V domains shown)
VH: EVQLQQSGAELVKPGASVKLSCKASGYTFTSYWMHWVKQRPGQGLEWIGLIHPNSSSTYYNEKFKTRATLTVDKSSSTAYMQLSSLTSEDSAVYYCARLGYGNSYWYFDVWGTGTTVTVSS
VL: QIVLTQSPALMAASPGEKVTITCSVSSSISSSNLHWYQQKSETSPKPWIYGTSNLASGVPIRFSGSGSGTSYSLTISSLEAEDAATYYCQQWRSYPWTFGGGTKLEIKR
Regarding B5, the values for the EC50 in assay [6], in assay [7] and in assay [8] were 0.0178 µg/mL, 0.0154 µg/mL and 0.0096 µg/mL, respectively.

B6: Kp2 2C07 (Fab, V domains shown)
VH: EVKLVESGEGLVKPGGSLKLSCAASGFTFSSYAMSWVRQTPEKRLDWVAYISSGGDHIYYADTVKGRFTISRDNARNTLYLQMSSLKSEDTAMYYCTRDTGYYVSRYFDVWGTGTTVTVSS
VL: DIVMTQSQKFMSTSVGDRVSVTCKASQNVVTNVAWYQQKSGQSPKVVIYSASFRSSGVPDRFTGSGSGTDFTLTISNVQSEDLAEYFCHQYNSHPLTFGGGTKLEIKR
Regarding B6, the Kd in assay [1] and in [2] was 9.9 nM each time.

B7: Kp2 2C07 Fab (Fab, V domains shown)
VH: EVKLVESGEGLVKPGGSLKLSCAASGFTFSSYAMSWVRQTPEKRLDWVAYISSGGDHIYYADTVKGRFTISRDNARNTLYLQMSSLKSEDTAMYYCTRDTGYYVSRYFDVWGTGTTVTVSS
VL: DIVMTQSQKFMSTSVGDRVSVTCKASQNVVTNVAWYQQKSGQSPKVVIYSASFRSSGVPDRFTGSGSGTDFTLTISNVQSEDLAEYFCHQYNSHPLTFGGGTKLEIKR
Turning to B7, the dissociation constant (Kd) in assay [9] and in assay [10] was 2.8 nM throughout.

B8: FimLD (other)
chain: FACKTANGTAIPIGGGSANVYVNLAPAVNVGQNLVVDLSTQIFCHNDYPETITDYVTLQRGAAYGGVLSSFSGTVKYNGSSYPFPTTSETPRVVYNSRTDKPWPVALYLTPVSSAGGVAIKAGSLIAVLILRQTNNYNSDDFQFVWNIYANNDVVVPTGG
In turn, B8 gave a koff in assay [11] of 1.3e-05 s⁻¹. Moreover, the dissociation constant Kd in assay [12] turned out to be 0.7 nM; in [13], 3.4 nM; in assay [14], 0.2 nM; in assay [15] it was 1.5 nM; in [16] it was 1 nM; in [17], 4.9 nM. Further, the values for the Kd in assay [18], in assay [19] and in assay [20] were 0.4 nM, 1 nM and 2.7 nM, respectively.

The record behind these values is patent US20250304662A1 (published 2025).
